Measurements taken from article PMC12892892.

Target: recombinant natriuretic peptide receptor B (NPR-B) (UniProt P20594)
Experiment: SPR; recombinant NPR-B immobilised on a CM5 chip by amine coupling (10 ug/mL, 10 mM sodium acetate pH 4.5); CBD-CNP injected at 1.25, 2.5, 5.0, 10 and 20 uM in 50 mM Tris HCl pH 7.5, 200 mM NaCl, 1 mM CaCl2; Biacore X; single-cycle kinetics, 1:1 Langmuir model

Chain of UniProt P20594 (P20594 23-458): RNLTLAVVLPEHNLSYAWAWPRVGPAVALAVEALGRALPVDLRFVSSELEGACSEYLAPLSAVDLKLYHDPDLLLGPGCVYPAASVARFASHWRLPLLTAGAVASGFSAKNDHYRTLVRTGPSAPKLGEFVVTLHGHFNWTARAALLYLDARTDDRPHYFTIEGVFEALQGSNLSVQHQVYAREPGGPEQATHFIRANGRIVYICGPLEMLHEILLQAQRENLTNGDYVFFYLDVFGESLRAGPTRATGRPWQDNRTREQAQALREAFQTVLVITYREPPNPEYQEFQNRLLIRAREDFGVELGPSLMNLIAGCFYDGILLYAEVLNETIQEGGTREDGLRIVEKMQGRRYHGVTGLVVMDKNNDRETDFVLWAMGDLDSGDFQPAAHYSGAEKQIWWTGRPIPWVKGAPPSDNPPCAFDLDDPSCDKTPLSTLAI

**Q.** Which Kd does the source give for “CBD-CNP (collagen-binding domain fused to C-type natriuretic peptide CNP-37) (from UniProt Q9X721 1003-1118)” here?
**A.** 495 µM
